Results published in the supplement of paper PMC11316812.
± gives the standard deviation of the averaged measurements.

Legend:
MCF7 = test: percentage of EdU-negative (G0-arrested) nuclei per well, 72 h; higher = more G0 arrest; details: reference: sequence is the full UniProt precursor, the tested protein was the secreted form or ectodomain
hTERT-HMEC = test: as above; details: reference: sequence is the full UniProt precursor, the tested protein was the secreted form or ectodomain
[1] = protein concentration 0.00775 µM
[2] = protein concentration 0.0775 µM
[3] = protein concentration 0.0225 µM
[4] = protein concentration 0.03125 µM
[5] = protein concentration 0.3125 µM
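Further: secreted proteins added to cultured cells, EdU pulse at the end, nuclei found by Hoechst imaging, EdU status from nuclear versus surrounding ring intensity ratio, PBS as neutral control.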

Sequence	percentage of EdU-negative (MCF7; [3]) [%]	percentage of EdU-negative (MCF7; protein concentration 0.225 µM) [%]	percentage of EdU-negative (hTERT-HMEC; [3]) [%]	percentage of EdU-negative (hTERT-HMEC; protein concentration 0.225 µM) [%]	further results
MPERLAEMLLDLWTPLIILWITLPPCIYMAPMNQSQVLMSGSPLELNSLGEEQRILNRSKRGWVWNQMFVLEEFSGPEPILVGRLHTDLDPGSKKIKYILSGDGAGTIFQINDVTGDIHAIKRLDREEKAEYTLTAQAVDWETSKPLEPPSEFIIKVQDINDNAPEFLNGPYHATVPEMSILGTSVTNVTATDADDPVYGNSAKLVYSILEGQPYFSIEPETAIIKTALPNMDREAKEEYLVVIQAKDMGGHSGGLSGTTTLTVTLTDVNDNPPKFAQSLYHFSVPEDVVLGTAIGRVKANDQDIGENAQSSYDIIDGDGTALFEITSDAQAQDGIIRLRKPLDFETKKSYTLKVEAANVHIDPRFSGRGPFKDTATVKIVVEDADEPPVFSSPTYLLEVHENAALNSVIGQVTARDPDITSSPIRFSIDRHTDLERQFNINADDGKITLATPLDRELSVWHNITIIATEIRNHSQISRVPVAIKVLDVNDNAPEFASEYEAFLCENGKPGQVIQTVSAMDKDDPKNGHYFLYSLLPEMVNNPNFTIKKNEDNSLSILAKHNGFNRQKQEVYLLPIIISDSGNPPLSSTSTLTIRVCGCSNDGVVQSCNVEAYVLPIGLSMGALIAILACIILLLVIVVLFVTLRRHKNEPLIIKDDEDVRENIIRYDDEGGGEEDTEAFDIATLQNPDGINGFLPRKDIKPDLQFMPRQGLAPVPNGVDVDEFINVRLHEADNDPTAPPYDSIQIYGYEGRGSVAGSLSSLESTTSDSDQNFDYLSDWGPRFKRLGELYSVGESDKET	–	–	–	–	percentage of EdU-negative (MCF7; [1]): 27.78 ± 0.12%; percentage of EdU-negative (MCF7; [2]): 34.9 ± 1.6%; percentage of EdU-negative (hTERT-HMEC; [1]): 5.37 ± 0.11%; percentage of EdU-negative (hTERT-HMEC; [2]): 5.69 ± 0.22%
MPGAAEALPTVTVTLVAGAVPPASGALTAHCIGGFWREVGVASDQSLVLTAPKRVEGLFLTLSGSNLTVKVAYNSSGSCEIEKIVGSEIDSTGKFAFPGHREIHVLDTDYEGYAILRVSLMWRGRNFRVLKYFTRSLEDKDRLGFWKFRELTADTGLYLAARPGRCAELLKEELI [Q6JVE9]	26.5 ± 1.8	31 ± 2.1	5.03 ± 0.21	9.51 ± 1.1	–
MPGGCSRGPAAGDGRLRLARLALVLLGWVSSSSPTSSASSFSSSAPFLASAVSAQPPLPDQCPALCECSEAARTVKCVNRNLTEVPTDLPAYVRNLFLTGNQLAVLPAGAFARRPPLAELAALNLSGSRLDEVRAGAFEHLPSLRQLDLSHNPLADLSPFAFSGSNASVSAPSPLVELILNHIVPPEDERQNRSFEGMVVAALLAGRALQGLRRLELASNHFLYLPRDVLAQLPSLRHLDLSNNSLVSLTYVSFRNLTHLESLHLEDNALKVLHNGTLAELQGLPHIRVFLDNNPWVCDCHMADMVTWLKETEVVQGKDRLTCAYPEKMRNRVLLELNSADLDCDPILPPSLQTSYVFLGIVLALIGAIFLLVLYLNRKGIKKWMHNIRDACRDHMEGYHYRYEINADPRLTNLSSNSDV	25.8 ± 1.4	27.9 ± 0.44	4.65 ± 0.22	6.38 ± 0.11	–
MPGGPGVLQALPATIFLLFLLSAVYLGPGCQALWMHKVPASLMVSLGEDAHFQCPHNSSNNANVTWWRVLHGNYTWPPEFLGPGEDPNGTLIIQNVNKSHGGIYVCRVQEGNESYQQSCGTYLRVRQPPPRPFLDMGEGTKNRIITAEGIILLFCAVVPGTLLLFRKRWQNEKLGLDAGDEYEDENLYEGLNLDDCSMYEDISRGLQGTYQDVGSLNIGDVQLEKP	25.3 ± 0.85	27 ± 1.2	5.39 ± 0.06	5.986 ± 0.025	–
MPGIKRILTVTILALCLPSPGNAQAQCTNGFDLDRQSGQCLDIDECRTIPEACRGDMMCVNQNGGYLCIPRTNPVYRGPYSNPYSTPYSGPYPAAAPPLSAPNYPTISRPLICRFGYQMDESNQCVDVDECATDSHQCNPTQICINTEGGYTCSCTDGYWLLEGQCLDIDECRYGYCQQLCANVPGSYSCTCNPGFTLNEDGRSCQDVNECATENPCVQTCVNTYGSFICRCDPGYELEEDGVHCSDMDECSFSEFLCQHECVNQPGTYFCSCPPGYILLDDNRSCQDINECEHRNHTCNLQQTCYNLQGGFKCIDPIRCEEPYLRISDNRCMCPAENPGCRDQPFTILYRDMDVVSGRSVPADIFQMQATTRYPGAYYIFQIKSGNEGREFYMRQTGPISATLVMTRPIKGPREIQLDLEMITVNTVINFRGSSVIRLRIYVSQYPF [Q9UBX5]	–	–	–	–	percentage of EdU-negative (MCF7; [4]): 27.1 ± 1%; percentage of EdU-negative (MCF7; [5]): 26.6 ± 2%; percentage of EdU-negative (hTERT-HMEC; [4]): 4.99 ± 0.79%; percentage of EdU-negative (hTERT-HMEC; [5]): 6.25 ± 1.1%
MPGLRRDRLLTLLLLGALLSADLYFHLWPQVQRQLRPRERPRGCPCTGRASSLARDSAAAASDPGTIVHNFSRTEPRTEPAGGSHSGSSSKLQALFAHPLYNVPEEPPLLGAEDSLLASQEALRYYRRKVARWNRRHKMYREQMNLTSLDPPLQLRLEASWVQFHLGINRHGLYSRSSPVVSKLLQDMRHFPTISADYSQDEKALLGACDCTQIVKPSGVHLKLVLRFSDFGKAMFKPMRQQRDEETPVDFFYFIDFQRHNAEIAAFHLDRILDFRRVPPTVGRIVNVTKEILEVTKNEILQSVFFVSPASNVCFFAKCPYMCKTEYAVCGNPHLLEGSLSAFLPSLNLAPRLSVPNPWIRSYTLAGKEEWEVNPLYCDTVKQIYPYNNSQRLLNVIDMAIFDFLIGNMDRHHYEMFTKFGDDGFLIHLDNARGFGRHSHDEISILSPLSQCCMIKKKTLLHLQLLAQADYRLSDVMRESLLEDQLSPVLTEPHLLALDRRLQTILRTVEGCIVAHGQQSVIVDGPVEQLAPDSGQANLTS [Q96MK3]	–	–	–	–	percentage of EdU-negative (MCF7; protein concentration 0.014 µM): 24 ± 3.4%; percentage of EdU-negative (MCF7; protein concentration 0.14 µM): 30.6 ± 0.74%; percentage of EdU-negative (hTERT-HMEC; protein concentration 0.014 µM): 6.29 ± 0.36%; percentage of EdU-negative (hTERT-HMEC; protein concentration 0.14 µM): 27.9 ± 9.3%
